This passage reports abundance fitness results from the Human Domainome abundance scans (Beltran et al. 2025).

± gives the uncertainty stated by the source.

B1: Zinc finger homeobox protein 3, residues 2244 to 2299; numbered along this chain, Q15911 (parent)
chain: SSRTRFTDYQLRVLQDFFDANAYPKDDEFEQLSNLLNLPTRVIVVWFQNARQKARK

The variants in this data set derive from B1. Nature of the data set: abundance fitness (aPCA) (normalised: wild type 0, dead -1); higher = more abundant; growth selection in yeast, the domain comes from the species named. The following applies: Homo sapiens.
As for SSRTRFTDYQLRVLQDFFDANAYPKDDEFEQLSNLLNLPTRCIVVWFQNARQKARK [V42C], the abundance fitness was -0.112 ± 0.13.

In the case of SSRTRFTDYQLRVLQDFFDANAYPKDDEFEQLSNLLNLPTRDIVVWFQNARQKARK [V42D], the abundance fitness was 0.055 ± 0.19.

For the variant SSRTRFTDYQLRVLQDFFDANAYPKDDEFEQLSNLLNLPTRRIVVWFQNARQKARK [V42R], the abundance fitness was -0.083 ± 0.082.

With SSRTRFTDYQLRVLQDFFDANAYPKDDEFEQLSNLLNLPTRYIVVWFQNARQKARK [V42Y], the abundance fitness is -0.134 ± 0.17.

For SSRTRFTDYQLRVLQDFFDANAYPKDDEFEQLSNLLNLPTREIVVWFQNARQKARK [V42E], the abundance fitness came to 0.174 ± 0.11.

Turning to SSRTRFTDYQLRVLQDFFDANAYPKDDEFEQLSNLLNLPTRQIVVWFQNARQKARK [V42Q], the abundance fitness was -0.028 ± 0.15.

SSRTRFTDYQLRVLQDFFDANAYPKDDEFEQLSNLLNLPTRNIVVWFQNARQKARK [V42N]: the abundance fitness was 0.003 ± 0.18.

In the case of SSRTRFTDYQLRVLQDFFDANAYPKDDEFEQLSNLLNLPTRLIVVWFQNARQKARK [V42L], the abundance fitness was 0.039 ± 0.099.

As for SSRTRFTDYQLRVLQDFFDANAYPKDDEFEQLSNLLNLPTRMIVVWFQNARQKARK [V42M], the abundance fitness was -0.059 ± 0.13.

Turning to SSRTRFTDYQLRVLQDFFDANAYPKDDEFEQLSNLLNLPTRHIVVWFQNARQKARK [V42H], the abundance fitness came to 0.022 ± 0.19.

As for SSRTRFTDYQLRVLQDFFDANAYPKDDEFEQLSNLLNLPTRPIVVWFQNARQKARK [V42P], the abundance fitness stood at 0.026 ± 0.14.

As for SSRTRFTDYQLRVLQDFFDANAYPKDDEFEQLSNLLNLPTRKIVVWFQNARQKARK [V42K], the abundance fitness is -0.036 ± 0.15.

On to SSRTRFTDYQLRVLQDFFDANAYPKDDEFEQLSNLLNLPTRGIVVWFQNARQKARK [V42G], for which the abundance fitness was -0.056 ± 0.087.

SSRTRFTDYQLRVLQDFFDANAYPKDDEFEQLSNLLNLPTRWIVVWFQNARQKARK [V42W]: the abundance fitness is -0.146 ± 0.11.

In the case of SSRTRFTDYQLRVLQDFFDANAYPKDDEFEQLSNLLNLPTRAIVVWFQNARQKARK [V42A], the abundance fitness is -0.045 ± 0.11.

On to SSRTRFTDYQLRVLQDFFDANAYPKDDEFEQLSNLLNLPTRTIVVWFQNARQKARK [V42T], for which the abundance fitness was determined as 0.186 ± 0.15.

Turning to SSRTRFTDYQLRVLQDFFDANAYPKDDEFEQLSNLLNLPTRIIVVWFQNARQKARK [V42I], the abundance fitness was -0.022 ± 0.33.

Consider SSRTRFTDYQLRVLQDFFDANAYPKDDEFEQLSNLLNLPQRVIVVWFQNARQKARK [T40Q], for which the abundance fitness is -0.214 ± 0.11.

Take SSRTRFTDYQLRVLQDFFDANAYPKDDEFEQLSNLLNLPRRVIVVWFQNARQKARK [T40R]: the abundance fitness was -0.139 ± 0.078.

For the variant SSRTRFTDYQLRVLQDFFDANAYPKDDEFEQLSNLLNLPSRVIVVWFQNARQKARK [T40S], the abundance fitness stood at 0.025 ± 0.073.

With SSRTRFTDYQLRVLQDFFDANAYPKDDEFEQLSNLLNLPFRVIVVWFQNARQKARK [T40F], the abundance fitness was -0.107 ± 0.087.

With SSRTRFTDYQLRVLQDFFDANAYPKDDEFEQLSNLLNLPMRVIVVWFQNARQKARK [T40M], the abundance fitness amounted to 0.073 ± 0.11.

For SSRTRFTDYQLRVLQDFFDANAYPKDDEFEQLSNLLNLPPRVIVVWFQNARQKARK [T40P], the abundance fitness is -0.047 ± 0.089.

As to SSRTRFTDYQLRVLQDFFDANAYPKDDEFEQLSNLLNLPIRVIVVWFQNARQKARK [T40I], the abundance fitness was -0.175 ± 0.092.

SSRTRFTDYQLRVLQDFFDANAYPKDDEFEQLSNLLNLPDRVIVVWFQNARQKARK [T40D]: the abundance fitness was -0.356 ± 0.11.

For SSRTRFTDYQLRVLQDFFDANAYPKDDEFEQLSNLLNLPHRVIVVWFQNARQKARK [T40H], the abundance fitness was -0.127 ± 0.097.

Take SSRTRFTDYQLRVLQDFFDANAYPKDDEFEQLSNLLNLPGRVIVVWFQNARQKARK [T40G]: the abundance fitness is -0.208 ± 0.077.

SSRTRFTDYQLRVLQDFFDANAYPKDDEFEQLSNLLNLPLRVIVVWFQNARQKARK [T40L]: the abundance fitness is -0.105 ± 0.073.

For SSRTRFTDYQLRVLQDFFDANAYPKDDEFEQLSNLLNLPWRVIVVWFQNARQKARK [T40W], the abundance fitness was -0.136 ± 0.11.

As to SSRTRFTDYQLRVLQDFFDANAYPKDDEFEQLSNLLNLPKRVIVVWFQNARQKARK [T40K], the abundance fitness is 0.221 ± 0.13.

On to SSRTRFTDYQLRVLQDFFDANAYPKDDEFEQLSNLLNLPTSVIVVWFQNARQKARK [R41S], for which the abundance fitness worked out at 0.021 ± 0.073.

As for SSRTRFTDYQLRVLQDFFDANAYPKDDEFEQLSNLLNLPTFVIVVWFQNARQKARK [R41F], the abundance fitness was -0.011 ± 0.091.

As for SSRTRFTDYQLRVLQDFFDANAYPKDDEFEQLSNLLNLPTMVIVVWFQNARQKARK [R41M], the abundance fitness turned out to be 0.005 ± 0.1.

For the variant SSRTRFTDYQLRVLQDFFDANAYPKDDEFEQLSNLLNLPTIVIVVWFQNARQKARK [R41I], the abundance fitness stood at 0.052 ± 0.091.

On to SSRTRFTDYQLRVLQDFFDANAYPKDDEFEQLSNLLNLPTDVIVVWFQNARQKARK [R41D], for which the abundance fitness was found to be 0.173 ± 0.1.

For the variant SSRTRFTDYQLRVLQDFFDANAYPKDDEFEQLSNLLNLPTVVIVVWFQNARQKARK [R41V], the abundance fitness came out at 0.108 ± 0.081.

SSRTRFTDYQLRVLQDFFDANAYPKDDEFEQLSNLLNLPTQVIVVWFQNARQKARK [R41Q]: the abundance fitness turned out to be 0.018 ± 0.12.

Turning to SSRTRFTDYQLRVLQDFFDANAYPKDDEFEQLSNLLNLPTAVIVVWFQNARQKARK [R41A], the abundance fitness amounted to 0.022 ± 0.079.

For SSRTRFTDYQLRVLQDFFDANAYPKDDEFEQLSNLLNLPTGVIVVWFQNARQKARK [R41G], the abundance fitness was determined as 0.057 ± 0.079.

As to SSRTRFTDYQLRVLQDFFDANAYPKDDEFEQLSNLLNLPTNVIVVWFQNARQKARK [R41N], the abundance fitness came to 0.195 ± 0.093.

For the variant SSRTRFTDYQLRVLQDFFDANAYPKDDEFEQLSNLLNLPTHVIVVWFQNARQKARK [R41H], the abundance fitness came out at 0.117 ± 0.087.

Take SSRTRFTDYQLRVLQDFFDANAYPKDDEFEQLSNLLNLPTKVIVVWFQNARQKARK [R41K]: the abundance fitness came to 0.074 ± 0.12.

Take SSRTRFTDYQLRVLQDFFDANAYPKDDEFEQLSNLLNLPTPVIVVWFQNARQKARK [R41P]: the abundance fitness is -0.046 ± 0.09.

Consider SSRTRFTDYQLRVLQDFFDANAYPKDDEFEQLSNLLNLPTYVIVVWFQNARQKARK [R41Y], for which the abundance fitness is -0.119 ± 0.096.

Turning to SSRTRFTDYQLRVLQDFFDANAYPKDDEFEQLSNLLNLPTWVIVVWFQNARQKARK [R41W], the abundance fitness is -0.167 ± 0.14.

For the variant SSRTRFTDYQLRVLQDFFDANAYPKDDEFEQLSNLLNLPTCVIVVWFQNARQKARK [R41C], the abundance fitness is -0.002 ± 0.1.

Turning to SSRTRFTDYQLRVLQDFFDANAYPKDDEFEQLSNLLNLPTLVIVVWFQNARQKARK [R41L], the abundance fitness is -0.075 ± 0.074.
